According to patent CN1678347A:

Columns and labels:
[1] = target: PSGL-1 (P-选择蛋白糖蛋白配体-1) (human) (UniProt Q14242); assay: FACS on ML2 cells, KPL-1-PE alone
[2] = target: PSGL-1 (P-选择蛋白糖蛋白配体-1) (human) (UniProt Q14242); assay: FACS competition on ML2 cells, 200ng KPL-1 against IgG Y1-PE

Chain of UniProt Q14242 (Q14242 42-412): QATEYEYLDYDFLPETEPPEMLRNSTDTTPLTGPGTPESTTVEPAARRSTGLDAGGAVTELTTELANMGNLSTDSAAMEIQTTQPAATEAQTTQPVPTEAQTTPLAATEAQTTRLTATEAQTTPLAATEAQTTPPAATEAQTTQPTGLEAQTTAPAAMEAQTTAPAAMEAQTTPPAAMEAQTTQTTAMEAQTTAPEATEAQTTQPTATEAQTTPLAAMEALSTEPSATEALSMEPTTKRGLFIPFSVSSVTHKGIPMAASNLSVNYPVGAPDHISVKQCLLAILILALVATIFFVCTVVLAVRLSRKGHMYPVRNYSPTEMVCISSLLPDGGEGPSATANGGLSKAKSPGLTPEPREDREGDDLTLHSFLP

Substance: KPL-1 (商业化供应的抗PSGL1小鼠单克隆抗体) (antibody)
- 中值 (median fluorescence) [1]: 700
- 中值 of IgG Y1-PE with competitor (median fluorescence) [2]: 2
- 抑制百分比 [2]: 100%
